Data from the nanobody polyreactivity screen of Harvey et al. (2022).

Experiment: yeast display, Sf9 membrane polyspecificity reagent, FACS + sequencing; frameworks hold sequencing errors
Procedure, shortened: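 Galactose-induced (36–48 hours) yeast carrying a synthetic nanobody display library were exposed to 10% biotinylated, detergent-solubilized Sf9 membrane reagent at 4 °C for 1 hour. FACS followed streptavidin microbead enrichment, using low and high (top ~1%) gates for expression (anti-HA) and reagent binding (streptavidin). Colony PCR, MiSeq 2 × 250 sequencing and CDR-length filtering followed. Labels for polyreactivity reflect the gate of origin.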

| Sequence | polyreactivity (PSR sort gate) |
| --- | --- |
| QVQLVETGGGLVQAGGSLRLSCAASGSIFQYYAMGSYRQAPGKERELVAAISSGGRTNYADSVKGRFTISRENAKNSVYLQMNSLKPEDTAVYYCAAARYYYQVYRWEYDYWGQGTQVTVSS | high polyreactivity |
| QVQLVETGGGLVQAGGSLRLSCAASGSIFTYYAMGWYRQAPGKEREFVAGISWSGGRTYYADSVKGRFTISRDNAKNTVYLQMNSLKPEDTAVYYCAAEIHDRFDSWGQGTQVTVSS | low polyreactivity |
| QVQLVETGGGLVQAGGSLRLSCAASGSTFVSNAMGWYSQAPGKERELVAAISYIGGGTYYADSEKGRFTISRDNAKNTVYLQMNSLKPEDTAVYYCAAGTPYDLDDYCGQGTQVTVSS | low polyreactivity |
| QVQLVETGGGLVQAGGSLRLSCAASGSTFVYYAMGWYRQAPGKERELVAAISSGGNTKYADSVKGRFTISRDNAKNTVYLQMNSLKPEDTEVYYCARESQSYYDHDYWGQVTQVTVSS | low polyreactivity |
| QVQLVETGGGLVQAGGSLRLSCAASGSTFWYNAMGWYRQAPGKERELVAAISRSGATTYYADSVKGRFTISRDNAKNTVYLQMNSLKPEDTAVYYCNAVISPSSYVRNSDYWGQGTQVTVSS | low polyreactivity |
| QVQLVETGGGLVQAGGSLRLSCAASGSTFWYNAMGWYRQAPGKESELVAAISRSGATTYYADSVKGRFTISRDNAKNTVYLQMNSLKPEDTAVYYCNKVRQYRYRGYTFDYWGQGTQVSVSS | low polyreactivity |
| QVQLVETGGGLVQAGGSLRLSCAASGSTIYLYAAMGLYRQAPGKESELVAAISGSGGSTFYADSVKGRFTISRDNAKNTVYLQMNSLKPEDTAVYYCAADKRYPYETYRPSVSASDSWGQGTQVTVSS | low polyreactivity |
| QVQLVETGGGLVQAGGSLRLSCAASGYNLNSNAMGWYRQAPGKEREFVASITESGGTTYYADSVKGRFTISRDNAKNTVYLQMNSLKPEDTAVYYCAADLVDWWYSSDLYDYWGQGTQVTVSS | high polyreactivity |
| QVQLVETGGGLVQAGGSLRLSCAPSGSIFEYNGMGWYRQAPGKERELVAAITTTGTTDYADSVKGRFTISRDNAKNTVYLQMNSLKPEDTAVYYCAADYTYYYKGEYDYWGQGTQVTVSS | low polyreactivity |
| QVQLVETGGGLVQAGGSLRLSCAPSGSIFGLNAMGWYRQAPGKERELVAAINTDGDTYYADSVKGRFTISRDNAKNTVYLQMNSLIPEDTAVFYCAADYYWDPFDSNFGHVPQEYESWGQGTQVTVSS | low polyreactivity |
| QVQLVETGGGLVQAGGSLRLSCAPSGSTFNSNVMGWYRQAPGKERELLAAISRSGGNTYYADSVKGRFTISRDNAKNTVYLQMNSLKQEDTAVYYCNVVFFSYYHGAYRGYDYWGQGTQVTVSS | high polyreactivity |
| QVQLVETGGGLVQAGGSLRLSCPASGRTFAKYAMGRYRQAPGKERELVAAISDSGGSTYYEDSVKGRFTISRDNAKNTVYLQMNSLKPEDTAVYYCAADGRYTYYWGQGTQVTVSS | high polyreactivity |
| QVQLVETGGGLVQAGGSLRLSCSASRLTFVYYTMGWYRQAPGKERELVAAITSSGGSTYYADSLKGRFTISRDNAKNTVYLQMNSLKPEDTAVSYCNAYWTYEFPSYDYWGPGTQVTVSS | low polyreactivity |
| QVQLVETGGGLVQAGGSLRLSFAASGIISYHNAMGWYRQAPGKERELLAGITYSGGSTYYEDSVKGRFTISRVNAKNTVYLQMNSMKPEDTAVYFCAARVVYWTWSCLSKMDYWGQGTQVTVSS | high polyreactivity |
| QVQLVETGGGLVQAGGSLRLSSAASGRTFYRYAMGWYRQAPGKDRELVATISRSGANTYADSVKGRFTISRDNAKNTVYLQMNSLKPEDTAVYYCNAGQYKGWGRMDYWGQGTQVTVSS | high polyreactivity |
| QVQLVETGGGLVQAGGSLRLSSAASGSTFRDYDMGWYRQARGKERELVAAISLSGGRTHYADSVKGRFTISRDNAKNTVYLQMNSLKPEDTAVYYCAARNSGPVQYYYWGQGTHVTVSS | low polyreactivity |
| QVQLVETGGGLVQAGGSLRLSSAASGSTFTYNVMGWYRQAPGKERELVAAISRIAGRTYYADSVKGRFTISRDTAKNTVYLQMNSLKPEDTAVYYCAALALKWRYDFWGQGTQVTVSS | high polyreactivity |
